Results reported in the DeepSol protein solubility set.

assay: soluble on expression in E. coli; label from the status in PepcDB or PDB records

Soluble on expression in E. coli, soluble:
METSMITELKSVRDIWKKMPSERHARIFLEEMIWPSGRHCPHCGSLSSTPIRGRTARPGLYQCAERECCLQFTVTTKTPMHATKLDLRIWIAAIFLMLTSSKGISSVVMARILGVNQKTAWKLGHAIRELMDEREAVSARLAGVVEVDEAYVGGAPKFKKGVKNKRGRGTGKPMVLVAADRTGQAKATLIPNAKGATLGPIMKEWIDPSSALMTDSNTAYRKIGRSFASHHTVNHGKRQHSRPSKGAHINTVEAVNSQVQRALIGVYHRLGRQHLQRYLDEILWQWNHRQQEVKIRNRKTSSGTKTIATRVWKPIPVVDQMRGLLCCAVGRQLRRTPQWGLCWPIHLFEHKGTFA
MYLPDDSPAKRLLFQMVGNAINRNTQQLTQDLRAMPNWSLRFVYIVDRNNQDLLKRPLPPGIMVLAPRLTAKHPYDKVQDRNRKLYGRHITLNDGNSVKVVTISAGRDEGPDRDIIWEMFLENLEHHHHHH
MGSSHHHHHHSSGLVPRGSHMDKGKSVKSTEKSVGMPPKTPKTDNNAHVDNEFLILQVNDAVFPIGSYTHSFGLETYIQQKKVTNKESALEYLKANLSSQFLYTEMLSLKLTYESALQQDLKKILGVEEVIMLSTSPMELRLANQKLGNRFIKTLQAMNELDMGEFFNAYAQKTKDPTHATSYGVFAASLGIELKKALRHYLYAQTSNMVINCVKSVPLSQNDGQKILLSLQSPFNQLIEKTLELDESHLCTASVQNDIKAMQHESLYSRLYMS
MALAQQLRSESDFEQLPDDVAVSANIADIEEKRGFTSHFVFVIEVKTKGGSKYLIYRRYRQFYALQSKLEERFGPESKNSPFTCSLPTLPAKVYMGAKQEIAETRIPALNAYMKNLLSLPVCVLMDPDVRIFFYQSAYDAEQVPQALRRLRPRTRKIKGVSPQGAIMDRMEAPRAEALFDFTGNSKLELSFKAGDVIFLLSKINKDWLEGTSQGATGIFPGSFVKILKDFPEDEDTTNWLRCYFYEDTGKTIKDIAVEEDLSSTPLFKDLLALMRREFQREDIALSYQDAEGDLVRLLSDEDVGLMVKQARGLPSQKRLFPWKLHVTQKDNYSVYNTVP
MVFKIKDEWGEFLVRLARRAIEEYLKTGKEIEPPKDTPPELWEKMGVFVTLNRYNVPPQTALRGCIGFPTPIYPLVEATIKAAIYSAVDDPRFPPVKLEEMDNLVVEVSVLTPPELIEGPPEERPRKIKVGRDGLIVEKGIYSGLLLPQVPVEWGWDEEEFLAETCWKAGLPPDCWLDEDTKVYKFTAEIFEEEYPRGPIKRKPLVLEHHHHHH
MKPKHLLCLSTVVAGLALFSTMTHSVLADDASNPDTILMNNNQANLQRDALVQKLDEGHQQLEAIKHEAKGTDIEATVNKAIDAVDHMKSSIRFNTETIYDFSSIGARVEALSDAIKAIVFSTTQLTHKVEKAHTDTGFAITKLVIRIIDPFASVDAIKAQVQEIKALEEKVINYPDLQPTDRATIYTKAKLNKAIWNTRLERDKKVLGIKSFDVYNRLNKAITHAVGVQLNPTTTVQQVDDEVIAVQNALETALKSLEHHHHHH
MGIIERIKEIEAEMARTQKNKATEYHLGQLKAKIAKLRTQLLEPPKGASGGGEGFEVTKYGHGRVALIGFPSVGKSTLLTMLTGTHSEAASYEFTTLTCIPGVIHYNDTKIQLLDLPGIIEGASEGKGRGRQVIAVAKSSDLVLMVLDASKSEGHRQILTKELEAVGLRLNKTPPQIYFKKKKTGGISFNTTAPLTHIDEKLCYQILHEYKIHNAEVLFRENATVDDFIDVIEGNRKYIKCVYVYNKIDVVGIDDVDRLSRQPNSIVISCNLKLNLDRLLARMWDEMGLVRVYSKPQGQQPDFDEPFVLSSDRGGCTVEDFCNHVHRTLVKDMKYALVWGTSTRHNPQNCGLSQHLEDEDVVQIVKKKERDEGGRGRFKSHSNAPARIADREKKAPLKQ
MSLGLFSKKPPCPICGGKIPLILPSKIEDEYICNTCYNKIDMGADQENHLTMQGLREYLAFYEQNQRLKEQFVISERIDFGLWDTKIIFDHRNKLFCMSKNPDKTVFEGQQLKSFTIKEDSTPLFEGSAAGIRRYASTVTERTMAMAPQIAQSAANRRMARTLDRLDDGKVNNSAPVQYFDIPEPFQAFNVELHFDHPYWTVLQCDMDGPRFDNSHPDVNNYLRSYQQSIEEIEKLVAALRTVAFPGAAEQSVGLGPVGMQAAYTTMAPPTDAIEEIKKYKALMEDGIISQQEFEAKKKQLLGIEGHHHHHH
MKLLLHICCGPCAVYPVNVLREEGIYFEGLFYNPNIHPYDEFIRRKENVKKLSEIKNVPVKYMDDFSQEIWEKLGEDNEKRCNMCYALRIDKVAGYAKENGFDAFTTTLLVSPYQKHELIVELSKRAGEKYGIEFFYKDFRPGFRQGQQEAKELGLYRQKYCGCIISYREAEKLKSERKSK
AHHHHHHGSGKRVVIALGGNALQQRGQKGSYEEMMDNVRKTARQIAEIIARGYEVVITHGNGPQVGSLLLHMDAGQATYGIPAQPMDVAGAMSQGWIGYMIQQALKNELRKRGMEKKVVTIITQTIVDKNDPAFQNPTKPVGPFYDEETAKRLAREKGWIVKEDSGRGWRRVVPSPDPKGHVEAETIKKLVERGVIVIASGGGGVPVILEDGEIKGVEAVIDKDLAGEKLAEEVNADIFMILTDVNGAALYYGTEKEQWLREVKVEELRKYYEEGHFKAGSMGPKVLAAIRFIEWGGERAIIAHLEKAVEALEGKTGTQVLP
MQKQAELYRGKAKTVYSTENPDLLVLEFRNDTSAGDGARIEQFDRKGMVNNKFNYFIMSKLAEAGIPTQMERLLSDTECLVKKLDMVPVECVVRNRAAGSLVKRLGIEEGIELNPPLFDLFLKNDAMHDPMVNESYCETFGWVSKENLARMKELTYKANDVLKKLFDDAGLILVDFKLEFGLYKGEVVLGDEFSPDGSRLWDKETLEKMDKDRFRQSLGGLIEAYEAVARRLGVQLD

Soluble on expression in E. coli, not soluble:
MGSDKIHHHHHHMNHLNDKVNEIKDNFYGLIGHAYLEKYITKPIVDEDKLRFLYTMLAEKLPKKDTKLFTLSALLVDAALEIHEAVSLHNIQTDPIKKNRQLNVLAGDYYSSLYYYLLADSRHLPIIQVFSHSIQEINEYKMKLYDGKNIDFDEVKNNVDKVDTFLLQNLAEHFQLTTWKKAISVFFHLKRLVHEREAWINGKATPLMKAIVTELFGSNRPVDELKKDDQLQVLELWEEKVEEGKDHLLEHVKALLPKFERFFVDHLNDLFGPDYIHEKVAEEG
MTLYRQLLAREKENNPIRVGVIGAGQMGFGMISQIAAIPGMSVVGISDIHVDAAKKAADAYNATATKKEKILLSNDFKEIIHSDLVEVIVDATGVPEVGAKISLETLLAKKQLVLLNVEIDITIGPLMKKLYDSAGLVYTGSDGDEPAAITELYEFSKSMGMEVLVAGKGKNNKLKISANPDSCQVEADGKNMASHMLAAFQDGTKTMAEMNLLSNAIGYVPDVVGMHGISGDVDSVIKDLDLKEQGGILNQFGVVEYVDGLAPGVFVIVKGQNEGVSHELSYLMKKGERDHHILYRPYHLASLETPLTIAKAVLNHDHAIVPMGAPVSETVAVAKKDIAAGERLDGIGGFCVRGVLETHVDMAAEGHIPIGLISGEVVARRNIKAGTFITDEDVSLDESTTVWKLRKLQDETFSN
MDISSTEIWDAIRRNSFLLYYQPKVDAKTNELIGFEGLIRLKTATAILAPADFFEDIALLNATREMQDFVAETAIEQINQLGGRFSISINIPAHYVVSSNYMTFLYDYVKEHLKYPECLEIEIIERGEITELAVADKNLRKIKKLGVTVSMDDFGKGYSSLAYLRSLPIDIVKTDMSFIALLKTDRKQQIIIQAIVNLCHDLGGKVVTEGVEDIEQVKTLREMKVDYFQGYYFSRPLPMKEIKEKYSIV
MSKADPSKGPAPACPGPDPAPRRPTRYVVPPGAVDTHAHVIGLPPTYPFVDARSYTPPAATPESYLAMLDATGMTYGVVVQVSVHGTDNRLMLETLQAHRDRLKGIAVIPLGLPDKELAALKDAGVVGLRLNILYGGGIGFERVGEYAAMAKELGWHLQFLIDAKDLVPLAPQLGGLPVPFIVDHWGHFPVSRGIDDPGFQTLVSLVRDGAWVKLSGAYRNTVAGFPYLDTIPFARLLHETAPDRCVWGSDWPHVATWQHMMNVGELLDLLADWVPDAAARDRVFTDNAYRLYGFTPVQGLEHHHHHH
MGSDKIHHHHHHMLRPHHSDNEQITLRSLLQSYRDQTTSNVVWGKIFEDFVTKYLMHDPLHYGRYEKVESYYEWAKERKDWNKNDIGIDLVAKLRHQESYVAIQCKFYKADHQISKKDIDSFIAESGKKIFKYRLLVDSTEVELSDNVNAMIKGQAIPIYRIDLRHMENSRIDWQTYATKKEVVLKSIKKPLPHQEPTMRPRAWIKAFSALAVASFK
MAHHHHHHMYDVKSIHIFRKVKDKDKGKSVILRGLNDNFFNAILVCMYEIVIYLNFANCEDGSTNKPSNKKKKKKGDDRNETTYYVKSARNENNAYRSNVKEVISHNKNKKKINGASGNAAVTREEKGKAERSGDFPGGGENMNDDKENPNQITLWSSNNHEEFGYEYIKDIIKKEEKELYETDKMYHNSNDEYSSHTSDSVEQ
ATFSKLLYRHRQFYTQFPWVEDKIREVCHHLDVSEELLPTGERLSSRRLRTIGIDLGRSSGFYSLAYLFEDPFVNIHGEKRLRPDFLVDVGQRVSFAGAPLYAAIHESIYGGIGGTTTNWSAHRIREEFPGCEENADPRSAEPFYLTGEHIFPWQFDEDPALQPYKAAAEQLATTQWEHSPYDAEVLKEQAAVTAACVYLDDAFVPFELSMDTAHTYRDLRLHVTNRFQHDGIRWDGAGILSTLRDKVLDH
MGSDKIHHHHHHMAEKVDYAALKKGGFMRQKQKGCFSLRIAVVGGNLTAENIKTVAEVAEKYGHGYVHMTSRQGIEIPFIKVEDINVVKEELAKGGVGTGVCGPRVRTVTACQGSEICPSGCIDTYTLAKELDERYFGRELPHKFKFGVTGCQNNCLKAEENDVGIKGGMTVECSHDDCIQCGVCVKACREGALSMEDGRIVIDRDKCNNCARCVKSCPTDAWKGTPGYIVSFGGLFGNHIYKGEQLVPIIRDKETLFRVTDAAISFFEKHANGGERFRLTLQRVGEEEFKKEIQAAYEGK
MTASRPAFLHLSPADTVGIALRALPSGEEALGVTLRADVPLGHKFAVVAMPAGTAVVKYGQVMGVATADIAPGDHVHSHNCAMSDSHSNRADAKGTLHAAPGRQTFQGYLRPDGRVGTRNYIGIMASVNCSSTVCNAIAEAANRTLLPRFPGIDGFAPIVHDQGCGMASAGEGFDALVRVLKGYRDHPNFGGVLIVGLGCEVNQLTLYKRTDWTEERIGIFNIQDVGGSASAVRRALELLEPICAAADQDRRSEQPVSKLVLGMQCGGSDGFSGITANPALGVASDMLVAAGGTSILSETPEIYGAEHLLIARADAETGRRIEGMIDWWRDYAAKNGASLDNNPSPGNKRGGLTTILEKSLGAVAKGGLSPLAGAFAYAEPIRIPGLVYMDSPGYDPVAATGQVASGANLIAFTTGRGSCFGAKPAPSIKLASNSDLARRMPEDMDIDCGVVVEEGVSLEEMGRRIYDLLLDTASGKRSKSEEFGYGDNEFVPWKIGATL
MAGRAAVPEVIWSRPERTGRGPRPAYTRADIAAAAVRIADADGLDAVSMRRVAGELGCGTMSLYNYVPRKEDLYELMMDAVSGEHELWEPSGDWRADMIRVAHQTRALMHRHTWLPRLMSPVYGFSPNALRYLEHCLACLDPFEAPYGTKMELVAMVNGVVTTYVANEIATVERTRSLPWSEEQENAARIAYLGRQVASGAYPRLAASFAEDAGPIDLEGVFERALARVLDGFA
